The values below come from paper PMC2876975.

Assay [1] concerns the target c-Myc–HMPV P, in vitro translated, unlabelled (human metapneumovirus strain TN/96-12). Nature of the assay: co-IP.
In assay [2] the target is c-Myc–HMPV N, in vitro translated, unlabelled (human metapneumovirus strain TN/96-12). The assay can be described thus: co-IP.

In turn, “Radiolabelled native HMPV N, in vitro translated (natural protein)” registered a percent co-immunoprecipitated in assay [1] below 1%.

“Radiolabelled native HMPV P, in vitro translated (natural protein)” gave a percent co-immunoprecipitated in assay [2] below 1%.
